This note sets out measurements from PMC7585203 (2020).

Where no end group is shown, it is not given here. [ ]: non-standard residue; d: D form. The star is where a group is joined. 5FAM = O=C1OC2(c3ccc(O)cc3Oc3cc(O)ccc32)c2ccc(C(=O)*)cc21; Me2 = dimethyl on lysine side chain; PEG = not defined here

By Kd is commonly meant the free concentration of one partner at which half of the binding sites on the other are occupied at equilibrium, for simple one-to-one binding.

Assay in all cases: FP
The target in assay [1] is T1, GST-tagged chromodomain Y-like protein isoform 2 (CDYL1b) chromodomain ( (printed UniProt entry is …)).
T1 chain: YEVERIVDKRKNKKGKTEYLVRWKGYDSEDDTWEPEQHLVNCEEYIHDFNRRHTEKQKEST

Assay [2] addresses T2, GST-tagged UHRF1 tandem Tudor domain (TTD, a.a. 125–285) ( (printed UniProt entry is …, UniProt Q96T88 125-285)).
T2 chain: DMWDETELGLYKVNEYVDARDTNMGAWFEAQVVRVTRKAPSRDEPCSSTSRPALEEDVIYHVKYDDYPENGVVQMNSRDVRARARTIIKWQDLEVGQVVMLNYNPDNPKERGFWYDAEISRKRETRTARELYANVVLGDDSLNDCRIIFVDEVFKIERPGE

Another assay has as its target T3, MPP8 chromo (Homo sapiens).
T3 chain: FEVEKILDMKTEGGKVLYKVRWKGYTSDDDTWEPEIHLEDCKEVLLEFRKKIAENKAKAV

For assay [3], the target named is T4, GST-tagged UHRF1 TTD–PHD R295A/R296A ( (printed UniProt entry is …, UniProt Q96T88 125-364, R295A | R296A)).
T4 sequence: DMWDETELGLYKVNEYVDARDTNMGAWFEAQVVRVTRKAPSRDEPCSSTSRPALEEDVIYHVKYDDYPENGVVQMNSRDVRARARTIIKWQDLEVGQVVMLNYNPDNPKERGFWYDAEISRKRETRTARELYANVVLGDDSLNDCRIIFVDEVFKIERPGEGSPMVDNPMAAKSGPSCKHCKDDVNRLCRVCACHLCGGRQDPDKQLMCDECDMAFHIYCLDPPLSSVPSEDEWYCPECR

For assay [4], the target named is T5, GST-tagged UHRF1 TTD-L2 (a.a. 125–301) ( (printed UniProt entry is …, UniProt Q96T88 125-301)).
T5 chain: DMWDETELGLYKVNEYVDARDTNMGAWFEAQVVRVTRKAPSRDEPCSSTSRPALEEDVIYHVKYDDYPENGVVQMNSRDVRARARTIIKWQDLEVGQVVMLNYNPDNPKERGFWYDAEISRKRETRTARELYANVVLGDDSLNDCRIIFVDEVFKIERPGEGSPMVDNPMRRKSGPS

Assay [5] addresses T6, GST-tagged UHRF1 TTD–PHD (a.a. 125–364) ( (printed UniProt entry is …, UniProt Q96T88 125-364)).
T6 chain: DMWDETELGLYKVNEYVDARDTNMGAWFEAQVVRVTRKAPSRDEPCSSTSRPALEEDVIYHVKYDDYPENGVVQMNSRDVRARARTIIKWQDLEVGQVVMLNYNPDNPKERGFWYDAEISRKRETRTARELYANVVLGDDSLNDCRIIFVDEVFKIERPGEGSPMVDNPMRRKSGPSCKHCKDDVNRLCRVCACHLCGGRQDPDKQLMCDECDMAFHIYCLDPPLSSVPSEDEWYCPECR

Assay [6] concerns the target T7, GST-tagged UHRF1 TTD–PHD S298E ( (printed UniProt entry is …, UniProt Q96T88 125-364, S298E)).
T7 sequence: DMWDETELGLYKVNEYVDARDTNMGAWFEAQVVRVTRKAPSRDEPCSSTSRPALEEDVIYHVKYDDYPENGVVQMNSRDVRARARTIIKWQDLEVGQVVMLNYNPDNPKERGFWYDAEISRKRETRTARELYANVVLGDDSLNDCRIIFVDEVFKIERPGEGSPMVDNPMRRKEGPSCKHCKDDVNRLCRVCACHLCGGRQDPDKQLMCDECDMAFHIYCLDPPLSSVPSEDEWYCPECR

For assay [7], the target named is T8, UHRF1 full-length (a.a. 1–793), MBP fusion ( (printed UniProt entry is …, UniProt Q96T88 1-793)).
T8 chain: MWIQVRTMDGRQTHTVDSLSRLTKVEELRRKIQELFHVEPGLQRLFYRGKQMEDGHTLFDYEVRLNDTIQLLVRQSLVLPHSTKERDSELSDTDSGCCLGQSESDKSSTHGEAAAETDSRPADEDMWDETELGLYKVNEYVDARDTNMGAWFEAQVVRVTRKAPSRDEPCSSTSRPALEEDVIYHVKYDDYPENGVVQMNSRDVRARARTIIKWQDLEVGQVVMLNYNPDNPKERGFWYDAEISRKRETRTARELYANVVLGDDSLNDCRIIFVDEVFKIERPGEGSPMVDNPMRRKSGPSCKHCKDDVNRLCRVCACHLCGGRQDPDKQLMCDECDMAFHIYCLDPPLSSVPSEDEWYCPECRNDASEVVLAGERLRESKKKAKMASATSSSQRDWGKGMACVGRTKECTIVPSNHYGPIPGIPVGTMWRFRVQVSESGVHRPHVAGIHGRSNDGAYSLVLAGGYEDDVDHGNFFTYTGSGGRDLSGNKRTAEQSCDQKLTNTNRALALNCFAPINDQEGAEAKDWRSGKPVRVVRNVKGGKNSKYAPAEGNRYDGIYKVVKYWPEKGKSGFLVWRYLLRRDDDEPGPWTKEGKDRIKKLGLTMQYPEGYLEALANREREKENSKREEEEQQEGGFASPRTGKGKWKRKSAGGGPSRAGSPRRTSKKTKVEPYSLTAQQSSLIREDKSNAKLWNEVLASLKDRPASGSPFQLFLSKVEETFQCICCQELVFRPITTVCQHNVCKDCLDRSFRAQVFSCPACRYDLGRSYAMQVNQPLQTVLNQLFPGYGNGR

As to {FAM}-IPKRRTARK(Me2)QLPK (not fully specified (C-terminus); printed as FAM-LIG1(118–130)K126me2 peptide) [FAM-LIG1(118–130)K126me2 peptide], the Kd in assay [1] was 6500 nM; in assay [2] it was 40 nM; with MPP8 chromo, 32000 nM; in assay [3] it was 8 nM; in assay [4], 10 nM; in assay [5] it was 10 nM. In assay [6], this molecule yielded a Kd of 10 nM.

5FAM-IPKRRTARK(Me2)QLPK[PEG][dK][dK][dK][dR][dK][dV]-NH2 (reading uncertain) [FAM-LIG1(118–130)K126me2-PEG-CPP] displayed a dissociation constant Kd in assay [7] of 8 nM.
